# Source: patent publication US20030148312A1, “Method for testing for allergic disease” (NATIONAL CENTER FOR CHILD HEALTH AND DEVELOPMENT, priority 2001, published 2003)
# Columns and labels:
# MAL = assay: Expression induction experiment with cytokines in cultured T cells derived from peripheral blood (MAL mRNA); type: cell-based, human; conditions: 0-48 h, IL-4 2 ng/ml, IL-12 2 ng/ml, IFN-γ 200 ng/ml, IFN-α 100 IU/ml
# Experimental: Effects of various cytokines on the MAL expression level were examined. T cells were separated from the peripheral blood sample from an normal healthy subject using the method described in Example 6, and stimulated with the anti-CD3 antibody to induce the cell growth. That is, on a culture plate which was surface-treated with the anti-CD3 antibody, the separated T cells were cultured in a 5% FCS-containing RPMI1640 medium (1 mM sodium pyruvate, 2 mM L-glutamine, 10 U/ml penicillin, 100 μg/ml streptomycin, and 200 U/ml IL-2) at a density of 5×10^5 cells/ml for 5 days. Grown T cells were diluted with the same medium to a density of 5×10^5 cells/ml, and cultured on a non-surface treated plate for further 3 days. The resulting cells were washed with the medium without IL-2, suspended in the medium (without IL-2) supplemented with cytokine for the stimulation at a density of 1×10^6 cells/ml, and cultured under the stimulation for a predetermined period of time. Cells were then collected to prepare RNA. Cytokines used are shown below:
# The same medium as that described in Example 3 was used. During the cultivation for 0˜48 h, mRNA for MAL was induced in the case of stimulation with IL-4. […] Induction of MAL expression with IL-4 may indicate the association of MAL with the action of IL-4 in allergic diseases. For example, MAL may act during the differentiation process of T cell into Th2, and also may associate with the production of Th2 cytokines, IL-4, IL-5, and IL-10.
# MAL protein [1] = assay: Induction of MAL protein expression in Jurkat cell line (Western blotting of raft fraction); type: cell-based, human; conditions: Jurkat cells, IL-4 2 ng/ml, 32 hours, raft fractions 4, 5, 6
# Experimental: Cell lysate was prepared from Jurkat cells that had been stimulated with IL-4 (2 ng/ml) for 32 hours, and subjected to sucrose density gradient centrifugation according to the method of Fernando Martin-Belmonte et al. (Fernando Martin-Belmonte, Rosa Puertollano, Jaime Millan, and Miguel A. Alonso. The MAL Proteolipid Is Necessary for the Overall Apical Delivery of Membrane Protein in the Polarized Epithelial Madin-Darby Canine Kidney and Fischer Rat Thyroid Cell Lines. Molecular Biology of the Cell 11, 2033-2045, June 2000) to separate the raft fraction (fractions 4, 5, and 6). Proteins in each fraction were separated by SDS polyacrylamide gel electrophoresis, and analyzed by Western blotting using antibody against MAL peptide or that against LAT (linker for activation of T cells).
# MAL protein [2] = assay: Induction of MAL protein expression in human peripheral blood T-cells (Western blotting of raft fraction); type: cell-based; conditions: IL-4 2 ng/ml, 41 hours, fraction 4
# Experimental: Human peripheral blood cells that had been cultured and propagated were similarly stimulated as in Example 7 with IL-4 (2 ng/ml) for 41 hours, and then the MAL protein expression in the raft fraction (fraction 4) was examined by Western blotting. As a result, the induction of the MAL protein expression by IL-4 was confirmed also in the raft of human peripheral blood T-cells (FIG. 8).
Molecule,induction of mRNA for MAL (MAL),expression of MAL protein in the raft (MAL protein [1]),MAL protein expression in the raft fraction (MAL protein [2])
IFN-α,No such action was observed,,
"IL-4: cytokine used for stimulation of T cells (protein, UniProt P05112 25-153, looked up) Interleukin-4: HKCDITLQEIIKTLNSLTEQKTLCTELTVTDIFAASKNTTEKETFCRAATVLRQFYSHHEKDTRCLGATAQQFHRHKQLIRFLKRLDRNLWGLAGLNSCPVKEANQSTLENFLERLKTIMREKYSKCSS",induced,increased,induction
"IFN-γ: cytokine used for stimulation of T cells (protein, UniProt P01579 24-161, looked up) Interferon gamma: QDPYVKEAENLKKYFNAGHSDVADNGTLFLGILKNWKEESDRKIMQSQIVSFYFKLFKNFKDDQSIQKSVETIKEDMNVKFFNSNKKKRDDFEKLTNYSVTDLNVQRKAIHELIQVMAELSPAAKTGKRKRSQMLFRG",No such action was observed,,
